Here are results for four molecules from patent US20190077860A1 (EISAI R AND D MANAGEMENT, published 2019).

Test in all cases: ELISA
Background: In an ELISA, binding on a coated surface is turned into a signal by an enzyme label.

The target in assay [1] is T1, human EphA1 extracellular region-SEAP-His protein (human, UniProt P21709 26-547).
T1 construct: extracellular domain; also called hEphA1-SEAP-His
T1 sequence (looked up): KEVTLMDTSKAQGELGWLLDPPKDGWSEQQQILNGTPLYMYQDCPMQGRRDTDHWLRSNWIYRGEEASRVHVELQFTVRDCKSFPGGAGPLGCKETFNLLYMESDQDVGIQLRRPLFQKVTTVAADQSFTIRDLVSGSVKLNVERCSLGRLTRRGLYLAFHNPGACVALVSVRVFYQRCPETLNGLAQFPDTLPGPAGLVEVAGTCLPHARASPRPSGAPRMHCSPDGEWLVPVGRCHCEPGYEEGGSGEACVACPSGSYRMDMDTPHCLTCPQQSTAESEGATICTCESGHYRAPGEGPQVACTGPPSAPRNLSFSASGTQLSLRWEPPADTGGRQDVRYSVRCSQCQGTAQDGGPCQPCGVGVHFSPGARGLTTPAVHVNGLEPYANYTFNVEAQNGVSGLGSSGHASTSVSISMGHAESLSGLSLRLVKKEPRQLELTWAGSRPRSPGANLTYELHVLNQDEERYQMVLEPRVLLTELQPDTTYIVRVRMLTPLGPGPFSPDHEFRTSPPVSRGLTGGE

Assay [2] concerns the target T2, human EphA6 extracellular region-SEAP-His protein (human, UniProt Q9UF33 23-550).
T2 construct: extracellular domain; also called hEphA6-SEAP-His
T2 sequence (looked up): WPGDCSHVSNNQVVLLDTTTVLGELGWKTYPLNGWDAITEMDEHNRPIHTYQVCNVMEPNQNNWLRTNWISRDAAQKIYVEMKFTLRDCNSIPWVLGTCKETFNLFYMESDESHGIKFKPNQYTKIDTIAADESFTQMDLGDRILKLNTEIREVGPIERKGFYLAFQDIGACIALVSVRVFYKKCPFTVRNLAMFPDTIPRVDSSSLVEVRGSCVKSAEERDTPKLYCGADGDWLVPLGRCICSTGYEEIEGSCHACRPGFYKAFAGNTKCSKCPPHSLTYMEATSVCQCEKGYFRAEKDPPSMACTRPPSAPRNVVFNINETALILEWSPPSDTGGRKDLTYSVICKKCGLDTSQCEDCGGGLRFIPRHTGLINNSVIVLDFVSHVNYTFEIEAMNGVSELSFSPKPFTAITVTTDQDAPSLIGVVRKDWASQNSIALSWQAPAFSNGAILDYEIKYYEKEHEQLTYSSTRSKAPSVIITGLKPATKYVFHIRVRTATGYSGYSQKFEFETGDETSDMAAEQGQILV

Assay [3] deals with T3, human EphB2 extracellular region-SEAP-His protein (human, UniProt P29323 19-543).
T3 construct: extracellular domain; also called hEphB2-SEAP-His
T3 sequence (looked up): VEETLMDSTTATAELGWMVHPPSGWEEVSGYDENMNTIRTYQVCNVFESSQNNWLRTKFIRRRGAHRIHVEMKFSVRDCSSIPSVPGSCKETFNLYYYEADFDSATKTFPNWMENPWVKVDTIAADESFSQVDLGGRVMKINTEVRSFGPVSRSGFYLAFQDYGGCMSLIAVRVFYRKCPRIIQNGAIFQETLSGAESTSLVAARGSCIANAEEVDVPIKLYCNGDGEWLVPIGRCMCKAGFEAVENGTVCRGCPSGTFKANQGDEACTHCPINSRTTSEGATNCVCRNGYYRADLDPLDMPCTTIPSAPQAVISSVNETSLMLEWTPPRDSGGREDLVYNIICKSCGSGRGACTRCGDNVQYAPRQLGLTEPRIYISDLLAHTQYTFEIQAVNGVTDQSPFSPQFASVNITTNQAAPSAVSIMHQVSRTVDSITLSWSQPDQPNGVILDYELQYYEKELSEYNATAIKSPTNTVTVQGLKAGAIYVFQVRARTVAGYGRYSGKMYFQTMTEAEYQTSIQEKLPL

Assay [4] addresses T4, human EphB3 extracellular region-SEAP-His protein (human, UniProt P54753 34-559).
T4 construct: extracellular domain; also called hEphB3-SEAP-His
T4 sequence (looked up): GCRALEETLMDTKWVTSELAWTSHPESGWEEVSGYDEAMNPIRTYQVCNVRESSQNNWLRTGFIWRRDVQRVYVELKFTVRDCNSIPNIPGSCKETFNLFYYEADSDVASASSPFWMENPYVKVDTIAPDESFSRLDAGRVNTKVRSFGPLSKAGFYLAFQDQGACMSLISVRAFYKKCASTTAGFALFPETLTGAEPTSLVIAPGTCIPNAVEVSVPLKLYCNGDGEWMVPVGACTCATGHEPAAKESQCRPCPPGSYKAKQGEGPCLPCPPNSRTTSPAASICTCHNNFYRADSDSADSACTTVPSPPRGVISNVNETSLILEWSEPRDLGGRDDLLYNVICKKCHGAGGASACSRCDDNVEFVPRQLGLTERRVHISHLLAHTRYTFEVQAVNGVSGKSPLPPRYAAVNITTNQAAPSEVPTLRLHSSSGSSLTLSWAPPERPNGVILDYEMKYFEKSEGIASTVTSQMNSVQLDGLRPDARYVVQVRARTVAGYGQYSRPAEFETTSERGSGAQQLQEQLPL

The target in assay [5] is T5, human EphA4 extracellular region-SEAP-His protein (human, UniProt P54764 20-547).
T5 construct: also called hEphA4-SEAP-His
T5 sequence (P54764 20-547): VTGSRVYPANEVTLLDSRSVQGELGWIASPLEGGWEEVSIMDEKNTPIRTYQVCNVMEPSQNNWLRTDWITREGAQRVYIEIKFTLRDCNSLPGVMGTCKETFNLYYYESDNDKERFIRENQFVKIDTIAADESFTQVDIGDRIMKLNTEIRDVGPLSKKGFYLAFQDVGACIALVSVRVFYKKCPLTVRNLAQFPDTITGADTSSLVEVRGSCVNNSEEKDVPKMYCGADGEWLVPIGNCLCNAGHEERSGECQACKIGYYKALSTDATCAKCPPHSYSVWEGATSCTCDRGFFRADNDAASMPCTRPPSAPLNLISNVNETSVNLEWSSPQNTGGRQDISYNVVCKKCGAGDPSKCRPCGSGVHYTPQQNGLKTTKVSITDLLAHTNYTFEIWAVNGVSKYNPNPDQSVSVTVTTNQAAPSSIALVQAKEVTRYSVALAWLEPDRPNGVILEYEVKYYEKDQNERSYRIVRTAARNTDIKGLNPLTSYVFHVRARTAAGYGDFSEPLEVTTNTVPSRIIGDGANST

Another assay concerns the target SEAP-His (UniProt P05187 23-511).

SEAP-His, sequence (P05187 23-511): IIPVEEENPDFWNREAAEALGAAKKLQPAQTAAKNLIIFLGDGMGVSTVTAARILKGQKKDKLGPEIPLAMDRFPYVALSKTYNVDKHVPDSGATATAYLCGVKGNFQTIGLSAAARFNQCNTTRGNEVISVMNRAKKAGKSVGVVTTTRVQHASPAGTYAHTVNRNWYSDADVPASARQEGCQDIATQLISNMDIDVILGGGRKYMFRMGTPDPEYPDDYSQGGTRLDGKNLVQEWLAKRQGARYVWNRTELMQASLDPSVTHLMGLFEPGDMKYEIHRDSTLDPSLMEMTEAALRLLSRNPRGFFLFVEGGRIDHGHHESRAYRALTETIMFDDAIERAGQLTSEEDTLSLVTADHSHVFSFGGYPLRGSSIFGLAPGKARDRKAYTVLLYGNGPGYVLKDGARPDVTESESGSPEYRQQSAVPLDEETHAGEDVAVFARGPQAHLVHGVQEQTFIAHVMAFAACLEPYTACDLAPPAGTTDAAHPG

B1: humanized antibody No. 71 (antibody, human IgG1, kappa)
heavy: QIQLVQSGSELKKPGASVKVSCKASGYTFTDYSMHWVRQAPGQGLKWMGWINTETGEPTYAQGFTGRFVFSLDTSVSTAYLQISSLKAEDTAVYYCARIPLYYYGSRYWYFDVWGQGTTVTVSSASTKGPSVFPLAPSSKSTSGGTAALGCLVKDYFPEPVTVSWNSGALTSGVHTFPAVLQSSGLYSLSSVVTVPSSSLGTQTYICNVNHKPSNTKVDKRVEPKSCDKTHTCPPCPAPPAAAPSVFLFPPKPKDTLMISRTPEVTCVVVDVSHEDPEVQFNWYVDGVEVHNAKTKPREEQFNSTFRVVSVLTVVHQDWLNGKEYKCKVSNKGLPAPIEKTISKTKGQPREPQVYTLPPSREEMTKNQVSLTCLVKGFYPSDIAVEWESNGQPENNYKTTPPMLDSDGSFFLYSKLTVDKSRWQQGNVFSCSVMHEALHNHYTQKSLSLSPG
light: EIVMTQSPATLSVSPGERATLSCRASENIYRNLAWYQQKPGQSPRLLIYAATNLADGIPARFSGSGSGTEYTLTISSLQSEDFAVYYCQHFWGTPWTFGQGTKVEIKRTVAAPSVFIFPPSDEQLKSGTASVVCLLNNFYPREAKVQWKVDNALQSGNSQESVTEQDSKDSTYSLSSTLTLSKADYEKHKVYACEVTHQGLSSPVTKSFNRGEC
notes: human Ig kappa; also called L2-4/HA4
With B1, the “A450 as % of hEphA4-SEAP-His” value in assay [1] stood at 5.6%; in assay [2], 9.2%; in assay [3], 5.5%; in assay [4], 5.5%; in assay [5] it was 100%; with SEAP-His, 5.6%.

B2: humanized antibody No. 93 (antibody, human IgG1, kappa)
heavy: QVQLVQSGSELKKPGASVKVSCKASGYTFTDYSMHWVRQAPGQGLEWMGWINTETGEPTYAQGFTGRFVFSLDTSVSTAYLQISSLKAEDTAVYYCARIPLYYYGSRYWYFDVWGQGTTVTVSSASTKGPSVFPLAPSSKSTSGGTAALGCLVKDYFPEPVTVSWNSGALTSGVHTFPAVLQSSGLYSLSSVVTVPSSSLGTQTYICNVNHKPSNTKVDKRVEPKSCDKTHTCPPCPAPPAAAPSVFLFPPKPKDTLMISRTPEVTCVVVDVSHEDPEVQFNWYVDGVEVHNAKTKPREEQFNSTFRVVSVLTVVHQDWLNGKEYKCKVSNKGLPAPIEKTISKTKGQPREPQVYTLPPSREEMTKNQVSLTCLVKGFYPSDIAVEWESNGQPENNYKTTPPMLDSDGSFFLYSKLTVDKSRWQQGNVFSCSVMHEALHNHYTQKSLSLSPG
light: EIVMTQSPATLSVSPGERATLSCRASENIYRNLAWYQQKPGQSPRLLIYAATNLADGIPARFSGSGSGTEYTLTISSLQSEDFAVYYCQHFWGTPWTFGQGTKVEIKRTVAAPSVFIFPPSDEQLKSGTASVVCLLNNFYPREAKVQWKVDNALQSGNSQESVTEQDSKDSTYSLSSTLTLSKADYEKHKVYACEVTHQGLSSPVTKSFNRGEC
notes: human Ig kappa; also called L2-4/HA1
In the case of B2, the “A450 as % of hEphA4-SEAP-His” value stood at 5% in assay [1]; 7.1% in assay [2]; 5% in assay [3]; 5.1% in assay [4]; 100% in assay [5]; 5% in the assay with SEAP-His.

B3: humanized antibody No. 95 (antibody, human IgG1, kappa)
heavy: QVQLVQSGSELKKPGASVKVSCKASGYTFTDYSMHWVRQAPGQGLEWMGWINTETGEPTYADDFKGRFVFSLDTSVSTAYLQISSLKAEDTAVYYCARIPLYYYGSRYWYFDVWGQGTTVTVSSASTKGPSVFPLAPSSKSTSGGTAALGCLVKDYFPEPVTVSWNSGALTSGVHTFPAVLQSSGLYSLSSVVTVPSSSLGTQTYICNVNHKPSNTKVDKRVEPKSCDKTHTCPPCPAPPAAAPSVFLFPPKPKDTLMISRTPEVTCVVVDVSHEDPEVQFNWYVDGVEVHNAKTKPREEQFNSTFRVVSVLTVVHQDWLNGKEYKCKVSNKGLPAPIEKTISKTKGQPREPQVYTLPPSREEMTKNQVSLTCLVKGFYPSDIAVEWESNGQPENNYKTTPPMLDSDGSFFLYSKLTVDKSRWQQGNVFSCSVMHEALHNHYTQKSLSLSPG
light: EIVMTQSPATLSVSPGERATLSCRASENIYRNLAWYQQKPGQSPRLLIYAATNLADGIPARFSGSGSGTEYTLTISSLQSEDFAVYYCQHFWGTPWTFGQGTKVEIKRTVAAPSVFIFPPSDEQLKSGTASVVCLLNNFYPREAKVQWKVDNALQSGNSQESVTEQDSKDSTYSLSSTLTLSKADYEKHKVYACEVTHQGLSSPVTKSFNRGEC
notes: human Ig kappa; also called L2-4/HK1
As for B3, the “A450 as % of hEphA4-SEAP-His” value worked out at 4.5% in assay [1]; 7% in assay [2]; 4.7% in assay [3]; 4.6% in assay [4]; 100% in assay [5]; 4.4% in the assay with SEAP-His.

B4: humanized antibody No. 73 (antibody, human IgG1, kappa)
heavy: QIQLVQSGSELKKPGASVKVSCKASGYTFTDYSMHWVRQAPGQGLKWMGWINTETGEPTYADDFKGRFVFSLDTSVSTAYLQISSLKAEDTAVYYCARIPLYYYGSRYWYFDVWGQGTTVTVSSASTKGPSVFPLAPSSKSTSGGTAALGCLVKDYFPEPVTVSWNSGALTSGVHTFPAVLQSSGLYSLSSVVTVPSSSLGTQTYICNVNHKPSNTKVDKRVEPKSCDKTHTCPPCPAPPAAAPSVFLFPPKPKDTLMISRTPEVTCVVVDVSHEDPEVQFNWYVDGVEVHNAKTKPREEQFNSTFRVVSVLTVVHQDWLNGKEYKCKVSNKGLPAPIEKTISKTKGQPREPQVYTLPPSREEMTKNQVSLTCLVKGFYPSDIAVEWESNGQPENNYKTTPPMLDSDGSFFLYSKLTVDKSRWQQGNVFSCSVMHEALHNHYTQKSLSLSPG
light: EIVMTQSPATLSVSPGERATLSCRASENIYRNLAWYQQKPGQSPRLLIYAATNLADGIPARFSGSGSGTEYTLTISSLQSEDFAVYYCQHFWGTPWTFGQGTKVEIKRTVAAPSVFIFPPSDEQLKSGTASVVCLLNNFYPREAKVQWKVDNALQSGNSQESVTEQDSKDSTYSLSSTLTLSKADYEKHKVYACEVTHQGLSSPVTKSFNRGEC
notes: human Ig kappa; also called L2-4/HK4
B4: the “A450 as % of hEphA4-SEAP-His” value in assay [1] is 6%; in assay [2] it was 7.4%; in assay [3], 5.6%; in assay [4], 5.8%; in assay [5], 100%; with SEAP-His it was 5.8%.
